Laboratory results taken from article PMC3458019.

Test: mouse liver sections 10 min after injection, anti-FX/CD68 staining
Settings: glycan lost; control: pd-FX

With Factor X (FX): PNGase F (N-degly-FX) the localisation_or_trafficking was “changes, the localization of FX was predominantly to hepatocytes”.
